Measurements as given in article PMC10197130, “Disulfide-Bond-Induced Structural Frustration and Dynamic Disorder in a Peroxiredoxin from MAS NMR” (Journal of the American Chemical Society, 2023).

Assays:
Tsa1 S78D mutant (yeast) = experiment: SEC; size-exclusion chromatography of the S78D mutant (Figure S2C)
[1] = biological target: the molecule itself; experiment: SEC-MALS; Superdex Increase 200 10/300 GL, phosphate buffer (PBS or 50 mM KPi KCl pH 7.4), RT (ca. 297 K); decamer also reinjected alone, with TCEP and after H2O2 treatment
[2] = biological target: the molecule itself; experiment: methyl-detected diffusion-ordered NMR spectroscopy (DOSY); solution, deuterated Ile/Leu/Val methyl-labeled sample, series from 25 to 60 °C; temperatures above the midpoint at ca. 315 K

| stoichiometry N (Tsa1 S78D mutant (yeast)) | Molecule | stoichiometry N [1] | stoichiometry N [2] |
| --- | --- | --- | --- |
| 2 | Tsa1 S78D mutant (enzyme) | – | – |
| – | Tsa1 wild type (2-Cys peroxiredoxin from yeast) (enzyme, UniProt P34760 1-196, looked up, disulfide bond between Cys47 (CP) of one subunit and Cys170 (CR) of another subunit in the oxidized state (as purified or after H2O2); free thiols in the reduced state (TCEP or DTT), Tsa1, 2-Cys peroxiredoxin from yeast, wild type, plasmid pET19b-Tsa1 corresponding to UniProt entry P34760, codon-optimized; No removal of the His tag is described; Decamer of five dimers (ca. 216 kDa) at ambient temperature; also called Tsa1^WT; Tsa1^ox; source: E. coli BL21(DE3), purified (Ni2+-HisTrap, gel filtration on Superdex S200 increase); copies: 10) MVAQVQKQAPTFKKTAVVDGVFDEVSLDKYKGKYVVLAFIPLAFTFVCPTEIIAFSEAAKKFEEQGAQVLFASTDSEYSLLAWTNIPRKEGGLGPINIPLLADTNHSLSRDYGVLIEEEGVALRGLFIIDPKGVIRHITINDLPVGRNVDEALRLVEAFQWTDKNGTVLPCNWTPGAATIKPTVEDSKEYFEAANK | 10 | 2 |
